This is an account of results in US20210221899A1 (published 2021).

First the molecules themselves.
B1: can48L2VH_F113A (antibody, V domains shown)
VH: EVQLVESGGDLVKPGGSLRLSCVASGFTFSTYGINWVRQAPGKGLQWVAYISSGGSSTYYADPVKGRFTISRDDAKNMLYLQMNSLRAEDTAIYYCAGSRYTYAYGGGYEFHAWGQGTLVTVSS
VL: QAVLNQPASVSGALGQKVTISCSGSTMDIDIFGVSWYQQLPGKAPKLLVDSDGDRPSGIPDRFSGSRSGNSGTLTITGLQAEDEADYHCQSGDSTLGALAIFGGGTHVTVL
notes: CDR scanning mutant of ZTS-842 (48L2)
B2: can48L2VH_S56A (antibody, V domains shown)
VH: B1 VH with S56A, A113F
VL: B1 VL
notes: as for B1
B3: can48L2VH_H112A (antibody, V domains shown)
VH: B1 VH with H112A, A113F
VL: B1 VL
notes: as for B1
B4: can48L2VH_I51A (antibody, V domains shown)
VH: B1 VH with I51A, A113F
VL: B1 VL
notes: as for B1
B5: can48L2VH_S52A (antibody, V domains shown)
VH: B1 VH with S52A, A113F
VL: B1 VL
notes: as for B1
B6: can48L2VH_S53A (antibody, V domains shown)
VH: B1 VH with S53A, A113F
VL: B1 VL
notes: as for B1
B7: can48L2VH_G54A (antibody, V domains shown)
VH: B1 VH with G54A, A113F
VL: B1 VL
notes: as for B1
B8: can48L2VH_G55A (antibody, V domains shown)
VH: B1 VH with G55A, A113F
VL: B1 VL
notes: as for B1
B9: can9L12VL_G53A (antibody, V domains shown)
VH: EVQLVESGGDLVKPGGSLRLSCVASGFTFSSHGMHWVRQSPGKGLQWVAVINSGGSSTYYTDAVKGRFTISRDNAKNTVYLQMNSLRAEDTAMYYCAKESVGGWEQLVGPHFDYWGQGTLVIVSS
VL: QSVLTQPTSVSGSLGQRVTISCSGSTNNIGILGASWYQLFPGKAPKLLVYGNANRPSGVPDRFSGADSGDSVTLTITGLQAEDEADYYCQSFDTTLGAHVFGGGTHLTVL
B10: can9L12VL_L32A (antibody, V domains shown)
VH: B9 VH
VL: B9 VL with L32A, A53G
B11: can9L12VL_H99A (antibody, V domains shown)
VH: B9 VH
VL: B9 VL with A53G, H99A
B12: can9L12VL_T94A (antibody, V domains shown)
VH: B9 VH
VL: B9 VL with A53G, T94A
B13: can9L12VL_G97A (antibody, V domains shown)
VH: B9 VH
VL: B9 VL with A53G, G97A
B14: can9L12VL_N27A (antibody, V domains shown)
VH: B9 VH
VL: B9 VL with N27A, A53G
B15: can9L12VL_L96A (antibody, V domains shown)
VH: B9 VH
VL: B9 VL with A53G, L96A
B16: can9L12VL_O90A (antibody, V domains shown)
VH: B9 VH
VL: B9 VL with A53G, Q90A
B17: can9L12VL_N52A (antibody, V domains shown)
VH: B9 VH
VL: B9 VL with N52A, A53G
B18: can9L12VL_T95A (antibody, V domains shown)
VH: B9 VH
VL: B9 VL with A53G, T95A
B19: can9L12VL_S91A (antibody, V domains shown)
VH: B9 VH
VL: B9 VL with A53G, S91A
B20: can9L12VL_I29A (antibody, V domains shown)
VH: B9 VH
VL: B9 VL with I29A, A53G
B21: can9L12VL_N28A (antibody, V domains shown)
VH: B9 VH
VL: B9 VL with N28A, A53G
B22: can9L12VL_T26A (antibody, V domains shown)
VH: B9 VH
VL: B9 VL with T26A, A53G
B23: can9L12VL_V100A (antibody, V domains shown)
VH: B9 VH
VL: B9 VL with A53G, V100A
B24: can9L12VL_I31A (antibody, V domains shown)
VH: B9 VH
VL: B9 VL with I31A, A53G

Substitutions are numbered along the chain they refer to.

T2 sequence (P25427 122-241 limits assumed): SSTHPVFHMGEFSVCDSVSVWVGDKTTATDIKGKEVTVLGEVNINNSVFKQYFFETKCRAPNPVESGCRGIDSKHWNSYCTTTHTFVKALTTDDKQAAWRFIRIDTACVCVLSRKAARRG

One assay deals with T1, canine NGF (canine, UniProt Q29074 110-229 (pig entry), limits assumed).
T1 construct: The protein was secreted from CHO cells and purified; also called cNGF; canine β-NGF
T1 chain: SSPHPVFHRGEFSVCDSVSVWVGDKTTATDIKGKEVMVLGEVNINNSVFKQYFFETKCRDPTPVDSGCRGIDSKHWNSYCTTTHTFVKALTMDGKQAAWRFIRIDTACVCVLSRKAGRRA
Put plainly: SPR (Biacore T200), 100 nM mAb on NGF chip, similarity to parent mAb. The source says: (§1) The region of an antibody responsible for antigen recognition represents the paratope. A paratope is created by a combination of amino acids in the complementarity determining regions (CDRs) of both the heavy and light chain variable regions. The binding between antibody and antigen is often mediated by side chains of CDR residues with side chains or carbohydrate moieties of the antigen. To help define critical side chains involved in antibody recognition alanine scanning mutagenesis was performed on each CDR residue in both the heavy and light chain, the technique as described by Cunningham and Wells (1989) Science, Vol. 244, Issue 4908, pp. 1081-1085. These mutants were then individually tested for the ability to NGF using the Biacore. […] Values were then compared to the wild type antibodies and are represented in the tables as a percent of wild type binding. The data presented in Tables 4 and 5 below are shown as a “percent similarity score” compared to wild type.
(§2) The mean response unit of four replicates of the parent mAb+/−3 standard deviations was used to generate parameters to define a threshold of response units comprising both the on- and off-rates antibody binding. The percentage of data points for each mutant fell within this threshold was then used to define a “% similarity score”. […] Results from substitution of alanine at each CDR position
Background: In SPR one partner is held on a chip, and binding of the other changes the refractive index at the surface.
Regarding B1, the “Percent Similarity Score (KD on cN)” value is 33.7%.
B2: the “Percent Similarity Score (KD on cN)” value amounted to 99.3%.
Still for that read-out and setting: to B3 belongs 40.3%; to B4, 24.2%.
Take B5: the “Percent Similarity Score (KD on cN)” value was 99.4%.
Regarding B6, the “Percent Similarity Score (KD on cN)” value was 97.8%.
Regarding B7, the “Percent Similarity Score (KD on cN)” value was 98.1%.
B8: the “Percent Similarity Score (KD on cN)” value turned out to be 99.3%.
The same measure, in the same setting: as for B9, the figure is 34.2%.
On the same count and under the same terms, as for B10, the figure is 4.4%; as for B11, 100%.
Still for that read-out and setting: to B12 belongs 100%; to B13, 98.9%; to B14, 100%.
As to B15, the “Percent Similarity Score (KD on cN)” value was 97%.
As for B16, the “Percent Similarity Score (KD on cN)” value came out at 79.2%.
On to B17, for which the “Percent Similarity Score (KD on cN)” value was determined as 100%.
The same measure, in the same setting: to B18 belongs 100%; to B19, 39.3%.
In the case of B20, the “Percent Similarity Score (KD on cN)” value came out at 4.4%.
On to B21, for which the “Percent Similarity Score (KD on cN)” value amounted to 6.6%.
With B22, the “Percent Similarity Score (KD on cN)” value was determined as 100%.
The same measure, in the same setting: as for B23, the figure is 58.2%; as for B24, 41.2%.

A further assay concerns the target T2, rat NGF (rat, UniProt P25427 122-241).
T2 construct: also called rN
Described as above.
Excerpt: as §1, §2
Regarding B1, the “Percent Similarity Score (KD on rN)” value turned out to be 32.2%.
For the molecule B2, the “Percent Similarity Score (KD on rN)” value is 99.8%.
For the molecule B3, the “Percent Similarity Score (KD on rN)” value stood at 98.5%.
Still for that read-out and setting: to B4 belongs 37.2%; to B5, 99.8%; to B6, 99.4%.
Same read-out and setting: as for B7, the figure is 99.3%; as for B8, 99.7%.
Still for that read-out and setting: to B9 belongs 11.7%.
Take B10: the “Percent Similarity Score (KD on rN)” value came to 1.7%.
On the same count and under the same terms, as for B11, the figure is 43.7%.
As for B12, the “Percent Similarity Score (KD on rN)” value amounted to 40%.
Same read-out and setting: as for B13, the figure is 35.9%; as for B14, 99.9%; as for B15, 37%.
The same measure, in the same setting: as for B16, the figure is 24.2%; as for B17, 100%.
The same measure, in the same setting: as for B18, the figure is 99.9%; as for B19, 14.5%.
On to B20, for which the “Percent Similarity Score (KD on rN)” value was 1.6%.
Regarding B21, the “Percent Similarity Score (KD on rN)” value is 2.5%.
On to B22, for which the “Percent Similarity Score (KD on rN)” value stood at 99.2%.
Same read-out and setting: to B23 belongs 20.2%.
Turning to B24, the “Percent Similarity Score (KD on rN)” value came to 12.6%.

In another assay the target is T3, human NGF (human, UniProt P01138 122-241).
T3 construct: also called human Nerve Growth Factor; hN
T3 chain: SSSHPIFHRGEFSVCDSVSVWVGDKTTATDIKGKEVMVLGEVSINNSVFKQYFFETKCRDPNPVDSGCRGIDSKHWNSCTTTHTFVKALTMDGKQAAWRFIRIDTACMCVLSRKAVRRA
The assay is described as above.
Excerpt: as §1, §2
As to B1, the “Percent Similarity Score (KD on hN)” value came out at 98.5%.
As to B2, the “Percent Similarity Score (KD on hN)” value came out at 99.9%.
Regarding B3, the “Percent Similarity Score (KD on hN)” value was 51.2%.
For B4, the “Percent Similarity Score (KD on hN)” value was 81.8%.
As to B5, the “Percent Similarity Score (KD on hN)” value is 100%.
For the molecule B6, the “Percent Similarity Score (KD on hN)” value is 100%.
Still for that read-out and setting: as for B7, the figure is 100%; as for B8, 100%; as for B9, 10%.
The same measure, in the same setting: to B10 belongs 1.5%; to B11, 56.9%.
On to B12, for which the “Percent Similarity Score (KD on hN)” value amounted to 52.5%.
For B13, the “Percent Similarity Score (KD on hN)” value is 43.3%.
On to B14, for which the “Percent Similarity Score (KD on hN)” value was found to be 100%.
For B15, the “Percent Similarity Score (KD on hN)” value stood at 34.2%.
As to B16, the “Percent Similarity Score (KD on hN)” value came out at 19.3%.
Turning to B17, the “Percent Similarity Score (KD on hN)” value amounted to 100%.
Same read-out and setting: to B18 belongs 100%.
As for B19, the “Percent Similarity Score (KD on hN)” value is 11.6%.
On the same count and under the same terms, to B20 belongs 1.5%.
Regarding B21, the “Percent Similarity Score (KD on hN)” value is 2.1%.
As for B22, the “Percent Similarity Score (KD on hN)” value was determined as 100%.
Still for that read-out and setting: as for B23, the figure is 15.7%; as for B24, 11.4%.
